Source: the DeepSol protein solubility set

Experiment: soluble on expression in E. coli; label from the status in PepcDB or PDB records
In the case of “MGSDKIHHHHHHMSDDLGSELQLLYLFVHLVNAGSFSQAAKELDMPIATVSRKLAKLEEKLDKQLFMRSTRKLRLTEEGLALFQRYQSVIAQFDELSGVGSDKPEGTLRIAAPISIISIIFIRALNEFGRLYPDIRLHISQSNELVDLIDKGIDVAIVGGAQPDSSWVSSTLGELDYCLFATPEYLAQAPKLTHPNDLEAHQLIKVWPLFNWHLKHPNGESFYFNGPTKLTLTDLHGAIESALDHGGILYGPELFVKQQIKEDRLKVLLPEWVGEQRRISILYHQRSQQPLKVRVFIEFMQSKAPELFSMA”, the “soluble on expression in E. coli” value is reported as “not soluble”. With “MGSDKIHHHHHHMFVQHDERSRPCCCSFISFKYLKTTTPQEEEMPKKPKPNNFHDELNFARFGVISMHSRIDREVTSWKSEFTINGRTFRIEAITPEGRPHGIDTDTLVAVETLFVASSCPEDNWVHTTAYEMRELMGLGNNGDSYHRLRQSLRRLYLTSVIVGRKTSVANASGRVTWDNVGVRFLEGIRYRDAEDANALSMLDGEATLSIRLGEQLAASIRNGVSQVLDGQLLHQLEQPPARALYRTLQAHRRQDDGTLLDQLRVPLAEWRLATGLTTERTDLVRRALEAAHDELLANRYLEAVSIEGRGKKAYASYTFAERGAADPALVVLLRHAGVTVSRATALAAQHPERVEEACGFWKAAGPARAARYVIPAAWLRTSSRIQANISFRKSSSNLAVNVSSGCRS” the “soluble on expression in E. coli” value was “not soluble”. For “MTTAAEIITVEKLNDFDYKVALQQQMVAAQNGAAAAVLRPHQIGSSPEAPQSQTSGGSTEQLQQQPLPPPTQQKQQQPLTIGPVAPNDRSTSSSSTDGPRRLHVSNIPFKYREPDLTAMFEKVGPVVDVEIIFNERGSKGFGFVTMQNPDDADRARAEFNGTTIEGRRVEVNLATQRVHNKKAKPLMSVGVDAMSAQNALISQQQQIQRAALLQQQLLAQQFLVPRHQQLMMPPTSAAAISQLQALQYQQALLAAQQQQQQMQNPQFLLSLQQQQQAQAQAPPTSMAQLIQHQQQFAMDPMAQAQAQAAQAQMVTLIAFEQQRMQLQAAAAAAQGRGVPQPGRIPTSTATTGSSQNQVAAGSIGEQYLQQSMQGAVPANFHHHSQALHPAAAAAAALQRRFAPY”, the “soluble on expression in E. coli” value was “not soluble”. For “MAWGGLCNPPLCFGFSGCDMNVREYYEHALAERGYQPDEAQLQAVERLQRYYDEWVRFKALRSNALKKLLNRPDVPRGVYLWGGVGRGKSFLMDAFYATVPVVRKTRLHFHEFMRGVHRELEEVKGTQDPLDEVARRLARRYRLICFDEFHVSDVADAMILYRLLLKLFEHGTSFVMTSNYEPSTLYPDGLHRDRILPAIALIQGRMDVLNVDAGIDYRRRSLEQVQCYHTPLDAQARQALEHAFAQLSDTAPQDPVLHIEHREIRAQALAGSVVWFDFATLCGGPRSQNDYLELANRFHAVILSDVPRMGPRQASEARRFTWLIDVFYDHKVKLIMSAEVEPEQLYTEGALANEFHRTVSRILEMQSREYLEAERRLAVTLAAALEHHHHHH”, the “soluble on expression in E. coli” value was “not soluble”. For “MAKSLLFITSFLKPRYNKPIMEKNWNVGTKYLNDKTRIIVVGITGREASQVVTESEALYPGFIKVGVTPGKGGTEVAGVPVFNTVKEALSSPEGKDVNTGLVYVPPASVKDAVIELIDAGIKLIYIVTEHVPIRDTVYFYHYAKERGVTIVGPTSLGCIVPRIPARIGAIGGKNPSIAYADGGLVILSKSGGLTTTTAEMFKRRGWGVYMALALGGDVISCTTFADVLEEIADDPNVKGVVIQGEVGGTYEEQAAETILRLYKEGRWNKPVAAFVAGKFQEKMEGVSFGHAGAIVERGKGKATDKIRMFNEVGKETGLVKVAEFYHDLVNCIEELGVPRDFEDSTPGGKVEPLYRTIDPETCEFKPQD”, the “soluble on expression in E. coli” value was “soluble”. With “MSLNMFWFLPTHGDGHYLGTEEGSRPVDHGYLQQIAQAADRLGYTGVLIPTGRSCEDAWLVAASMIPVTQRLKFLVALRPSVTSPTVAARQAATLDRLSNGRALFNLVTGSDPQELAGDGVFLDHSERYEASAEFTQVWRRLLQRETVDFNGKHIHVRGAKLLFPAIQQPYPPLYFGGSSDVAQELAAEQVDLYLTWGEPPELVKEKIEQVRAKAAAHGRKIRFGIRLHVIVRETNDEAWQAAERLISHLDDETIAKAQAAFARTDSVGQQRMAALHNGKRDNLEISPNLWAGVGLVRGGAGTALVGDGPTVAARINEYAALGIDSFVLSGYPHLEEAYRVGELLFPLLDVAIPEIPQPQPLNPQGEAVANDFIPRKVAQS” the “soluble on expression in E. coli” value was “soluble”. In the case of “MSLKPVMIIQFSASEGPGHFGDFLAGEHIPFQVLRMDRSDPLPAEIRDCSGLAMMGGPMSANDDLPWMPTLLALIRDAVAQRVPVIGHCLGGQLLAKAMGGEVTDSPHAEIGWVRAWPQHVPQALEWLGTWDELELFEWHYQTFSIPPGAVHILRSEHCANQAYVLDDLHIGFQCHIEMQAHMVREWCSISPEELKGGAEADEGHHHHHH”, the “soluble on expression in E. coli” value is reported as “not soluble”. In the case of “GSKCKCSRKGPKIRYSDVKKLEMKPKYPHCEEKMVIITTKSVSRYRGQEHCLHPKLQSTKRFIKWYNAWNEKRRVYEE”, the “soluble on expression in E. coli” value is reported as “soluble”. With “MSLGEETSYCFKEKSRGVLREWYAHNPYPSPREKRELAEATGMTTTQVSNWFKNRRQRDRAAEAKERENTENEGHHHHHH” the “soluble on expression in E. coli” value was “soluble”. In the case of “MSLLPTILTVDDEEMIRDLMVTALSREGYRCFQAGSAEEARSVLQNNKIDLAILDIMMPGLSGDDFLKELKVLSPETVVLMVTALSDTETAMKCIHLGAYDYILKPFDIDRVLLTIHNALEKQRLLAENREYQANLEKKVDEQTRQIRMAMEDLNLAYNHTLTALVRALDAREKETGSHSERVMTYTLLLGEAMGVPEKDLSVMARGALLHDIGKVGISDNILLKPAKLDEREWMEMMRHPQLGYEILSGIKFLKGPAEIVFAHHERFDGSGYPKGLSRSGIPLGARIFSLVDTLDAMTSDRPYRKALPFEAVTSEVRRCRGTQFDPEIVDIFLSIPRERWEVVGKRHFIVGEGHHHHHH”, the “soluble on expression in E. coli” value is reported as “not soluble”. In the case of “MSLYIDGTFSYSLYRKICTDRSAVNKASNTQESSVAKPSIIKTSENPLQTIEVEVYDEYGEKLVKSIACERPLTVLLNWKEIVTLMTLGSRPEALVLGYLKNQSFISDPEALDSIIIDWETHSAAVVTRENIDHLEPALKKKTVTSGCGQGTMYGNVMKQLEHYQVPQQPIKQSQIYAALEALTHYNDTYKKAGAVHGCAICQEDRVLSFVEDVGRHNAVDTLAGEMWLNGMRGDDKIFYTTGRLTSEMVIKVAQMGIPVLLSRSGVTQMGLELAQRFGITTIARASGRRFHVYSGADKMVFDVKGHSEEAEGHHHHHH”, the “soluble on expression in E. coli” value is reported as “soluble”. In the case of “MKTKIINLVVVTGMSGAGKTVAIQSFEDIGYFTIDNIPPSLVPKVIELLKHSEETDKIALVVDMRSRVFFDEINDILDQLESNEELNFKILFLDATDGELVSRYKETRRSHPLAADGRVLDGIKLERELLSPLKSLSQNVVDTTKLTPRQLRKAISEQFSSKQDQSSFRIEVLSFGFKYGLPLDADLVFDVRFLPNPYYDPTLRNLTGLDKEVYDFVMTHKESEDFYKNLNHLIKPILPGYQKEGKSVLTIAVGCTGGQHRSVAFAHRLAQDLKNDWTVNETHRDKDRRKETVNRS”, the “soluble on expression in E. coli” value is reported as “not soluble”. In the case of “MTNEEPLPKKVRLSETDFKVMARDELILRWKQYEAYVQALEGKYTDLNSNDVTGLRESEEKLKQQQQESARRENILVMRLATKEQEMQECTTQIQYLKQVQQPSVAQLRSTMVDPAINLFFLKMKGELEQTKDKLEQAQNELSAWKFTPDR”, the “soluble on expression in E. coli” value is reported as “soluble”. With “MAEIPLFPLSNALFPAGVLRLRVFEIRYLDMVRRCIADGSEFGVVVLEQGTEVRRPDGREVLARAGTMARIDHWEAPMPALLELACTGTGRFRLHACTQGKYGLWTGQAEPVPDDAPLEVPPELARSASALGRLIARLQREGVPPHIMPMAAPFRLDDCGWVADRWAEMLSLPPADKARLLLLPPLDRLREIDAVLAADGHALEHHHHHH” the “soluble on expression in E. coli” value was “soluble”. For “MNLNFSLLDEPIPLRGGTILVLEDVCVFSKIVQYCYQYEEDSELKFFDHKMKTIKESEIMLVTDILGFDVNSSTILKLIHADLESQFNEKPEVKSMIDKLVATITELIVFECLENELDLEYDEITILELIKSLGVKVETQSDTIFEKCLEILQIFKYLTKKKLLIFVNSGAFLTKDEVASLQEYISLTNLTVLFLEPRELYDFPQYILDEDYFLITKNMV”, the “soluble on expression in E. coli” value was “not soluble”.
